# Variants at the floor of the assay were thinned out.
# B1: TPR 5TU (parent)
# chain: GGAUCUUCUCGAUCUAACAAAAAAGACAAAUCUGCCACAAAGCUUGAGAGCAUCUUCGGAUGCAGAGGCGGCAGCCUUCGGUGGCGCGAUAGCGCCAACGUUCUCAACUAUGACACGCAAAACGCGUGCUCCGUUGAAUGGAGUUUAUCAUG
# Variants of: B1
# Assay: polymerase ribozyme fitness, log enrichment relative to wild type (log ratio); higher = more active; in vitro selection for triplet polymerase activity
# Method in brief: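 Mutant libraries of each subunit of a heterodimeric triplet polymerase ribozyme were built by PCR and transcribed. Each library went through one round of in vitro selection in triplicate: annealing with biotinylated primer, partner subunit and triplets, frozen incubation at −7 °C, gel excision of extended constructs, streptavidin-bead capture and RT-PCR. Input and output libraries were Illumina-sequenced; only genotypes with ≥10 input reads and ≥1 read per output were kept. Fitness is log2(genotype enrichment/wild-type enrichment), using inverse-variance-weighted replicate averages.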
row,Variant,polymerase ribozyme fitness (log ratio)
1,GGGUCUUCUCGAUCUAACAAAAAAGACAAAUCUGCCACAAAGCUUGAGAGCAUCUUCGGAUGCAGAGGCGGCAGCCUUCGGUGGCGUGAUAGCGCCAACGUUCUCAACUAUGACACGCAAAACGCGUGCUCCGUUGAAUGGAGUUUAUCAUG,-0.743
2,GGGUCUUCUCGAUCUAAUAAAAAAGACAAAUCUGCCACAAAGCUUGAGAGCAUCUGCGGAUGCAGAGGCGGCAGCCUUCGGUGGCGCGAUAGCACCAACGUUCUCAACUUUGACACGCAAAACGCGUGCUCCGUUGAUAGGAGUUUAUCAUG,≤ -4.2
3,GGGUCUUCUCGAUCUAACAAAAAAGACAAAUCUGCGACAAAGCUUGAGAGCAUCUUCGGAUGCAGAGGCGGCAGCCCUCGGUGGCGCGAUAGCGCCAACGUUCUCAACUAUGACACGCAAAACGCGUGCUCCGUUGAAUGGAGUUUAUCAUG,≤ -4.2
4,GGGUCUUCUCGAUCUAAUAAAAAAGAGUAAUCUGCCACAAAGCUUGAGAGCAUCUUCGGAUGCAGAGGCGGCAGCCUACGGUGGCGCGAUAGCGCCAACGUUCUCAACUAUGACACGCAAAACGCGUGCUCCGUUGAAUGGAGUUUAUCAUG,≤ -4.2
5,GGGUCUUCUGGAUCUAACAAAAAAGACAAAUCUGCCACAAGGCUUGAGAGCAUCUUCGGAUGCAGAGGCGGCAGCAUUCGGUGGCGCGAUAGCGCCAACGUUCUCAACUAUGACACGCAAAACGCGUGCUCCGUUGAAUGGAGUAUAUCAUG,≤ -4.2
6,GGGUCUUCUCGAUCUAACAAAAAAGACAAAUGUGUCACAAAGCUUGAGCCCAUCUUCGGAUGCAGAGGCGGCAGCCUUCGGUGGAGCGAUAGCGCCAACGUUUUCAACUAUGACACGGAAAACGCGUGCUCCGUUGAAUGGAGUUUAUCAUG,≤ -4.2
7,GGGUCUUUUCGAUCUAACAAAAAACACAAAUCUGCCACAAAGCUGGAGAGCAUCGUCGGAUGCAGAGGCGGCAGCCUUCGCUGGCGCGAUAGCGUCAACGUUCUCAACUAUGAUACUCAGAGCGCGUGCUCCGUUGAAUGGAGUUUAUCAUG,≤ -4.2
8,GGGUCUUCUCGAUCUAACAAAAAAGACAAAUCUGCCACAAAGCUUGAGAGCAUCUUCGGAUGCAGAGGCGGCAGCCUUCGGUGCCGCGAUAGCGCCAACGUUCUCAACUAUGACACGCAAAACGCGUGCUCCGUUGAAUGGAGUUUAUCAUG,-1.98
9,GGGUCUUCUCGAUGUAACAAAAAAGACAAAUCUGCCACAAAGCUUGAGAGCAUCAACGGAUGCAGAGGCGGCAGCCUUCGGUGGUGCGAUAGCGCCAACGUUCUCAACUAUGACACGCAAAACGCGUGCUCCGUUGAAUGGAGUUUAUCAUG,-4.18
10,GGGUCUUCUCGAUCUAACAAAAAAGACAAAUCUGCCACAAAGCUUGAGAGCAUCUUCGGAUGCAGAGGCGUCAGCCUUCGGUGGCGCGAUAGCGCAAACGUUCUCAGCUAUGACAUGCAAAACGGGUGCUCCGUUGAAUGGAGUUUAUCAUG,≤ -4.2
11,GGGUCUUCUCGAUCUAACAAAAAAGACAAAUCUGCCACAAAGUUUGAGAGCAUCUUCGGCUGCAGAGGCGGCAGCCUUCGGUGACGCGAUAGCGCCAACGUUCUCAACUAUGACACGCAAAACGCGUGCACCGUUGAAUGGAGUUUAUCAUG,≤ -4.2
12,GGGUCUUCUAGGUCUAACAAAAAAGACAAAUCUGCCACAAAGCUUGAGAGCAUCUUCGUAUGCAGGGGCGGGAGCCUUCGGUGGUGCGAUAGCGCCAACGUUCUCAACUAUGACACGCAAAACGCGUGCUCCGUUGAAUGGAGUUUAUCAUG,≤ -4.2
13,GGGUCUUCUCGAUCUAAAAAAAAAGACAAAUCUGCCACAAAGCUUGAGAGCAUCUUCGGAUGCAGAGGCGGCAGCCUUCGGUGGCGCGAUAGGGCCAACGUUCUCAACUAUGACACGCAAAAUGCGUGCUUCGUUGAAUGGAGUUUAUCAUG,-1.32
14,GGGUCUUCUCGAUCUAACAAAAAAGACAAAUCUGCCACAAAGCUUGAGAGCAUCUUCGGAUGCAGAGGCGGCAGCCUUCGGUGGCGCGAUAGCCCCAACGUUCUCAACUAUGACACGCAAAACGCGUGCUCCGUUGAAUGGAGUUUAUCAUG,-1.07
15,GGGUCUUCUCAAUCUAACAAAAAAGACAAAUUUGCCACAAAGCUUGAGAGCAUCUUCGGAUGCAGAGGCGGCAGCCUUCGGUGGGGAGAUAGCGCCAACGUUCUCAACUAUGACACGCAAAACUCGUGCUCCGUUGAAUGGAGUUUAUCAUG,≤ -4.2
16,GGGUCUUCUCGAUGUAACAAAAAAGACAAAUCUGCCACAAAGCUUGAGAGCAUCUUCGGAGGCAGAGGCGACAGCCUUCGGUGGCCCGAUCGCGCCAACGUUCUGAACUAUGAGACGCAAAACGCGUGCUCCGUUGAAUGGAAUAUAUCAUG,≤ -4.2
17,GGGUCUUCUCGAUCUAACAAAAAAGACAAAUCUGCCACAAAGCUUGAGACCAUCUUCGGAUGCAGAGGCGGCAGCAUUCGGUGGCGCGAUAGCGCCAACGUUCUCAACUAUGACUCGCAAAACGCGUGCUGCGUUGAAUGGAGUUUAUCAUG,≤ -4.2
18,GGGUCUUCUCGAUCUAACAAAAAAGAUAAAUCUGCCACAAAGCUUGAGAGCAUCAUCGGAUGCAGAGGCGGCAGCCUUCGGUGGCGCGACAGCUCCAACGUUCUCAACUAUGAGAAGCAAAACGCGUGCUCCGUUGAAUGGAGUUUAUCAUG,≤ -4.2
19,GGGUCUUCUCGAUCUAACAAAAAAGACAAAUCUGCCACAAAGCUUGAGACCAUCUUCGGAUGCAGAGGCGGCAGCCUUCGGUGGCGCGAUAGCGCCAACGUUCUCAACUAUGACACGCAGAACGCGUGAUCCGUUGAAUGGAGUUUAUCAUG,≤ -4.2

row,Variant,polymerase ribozyme fitness (log ratio)
1,GGGUCUUCUCGAUCUAACAAAAAAGACAAAUCUGCCACAAAGCUUGAGAGCAUCUUCGGAUGCAGAGGCGGCAGCCUUCGGUGGCACGAUAGCGCCAACGUUCUCAACUAUGACACGCAAAACGCGUGCUCCGUUGAAUGGAGUUUAUCAUG,-1.52
2,GGGUCUUCUCGAUCUAACAAAAAAGACAAAUCUGCCACAAAGCUUGAGAGCAUCUUCGGAUGCAGAGGCGGCAGCCUUCGGUGACGCGAUAGCGCCAUCGUUCUCAACUAUGACACGCAAAACGCGUGCUCCGUUGAAUGGAGUUUAUCAUG,-1.36
3,GGGUCUUCUCGAUCUAACAAAAAAGAUAAAUCUGCCACAAAGCUUGAGAGCAUCUUCGGAUGCAGAGGCGGCAGCCUUCGGUGGCACGAUAGCGCCAACGUUCUCAACUAUGACACGCAAAACGCGUGCUCCGUUGAAUGGAGUUUAUCAUG,-3.94
4,GGGUCUUCUCGAUCUAACAAAAAAGACAAAUCUGCCACAAAGCUUGAGAGCAUCUUCGGAUGCAGAGGCGGCAGCCUUCGGUGGCGUGAUAGCGCCAACGUUCUCAACUAUGACACGCAAAACGCGUGCUCGGUUGAAUGGAGUUUAUCAUG,-4.07
5,GGGUCUUCUCGAUCUAACAAAAAAGACAAAUCUGCCACAAAGCUUGAGAGCAUCUUCGGAUGCAGAGGCGGCAGCCUUCGGUGGGGCGAUAGCGCCAACGUUCUCAACUAUGACACGCAAAACGCGUGCUCCGUUGAAUGGAGUUUAUCAUG,-3.16
6,GGGUCUUCUCGAUCUAACAAAAAAGACAAAUCUGCCACAAAGCUUGAGAGCAUCUUCGGAUGCAGAGGCGGCAGCCUUCGGUGGUGCGAUAGCGCCAACGUUCUCAACUAUGACACGCAAAACGCGUGCUCCGUUGAAUGGAGUUUAUCAUG,-1.05
7,GGGUCUUCUCGAUCUAACAAAAAAGACAAAUCUGCCACAAAGCUUCAGAGCAUAUUCGGAUGCAGAGGCGGCAGCCUUCGGUGGCGCGAUAGCGCCAACGUUCUCAACUAUGACACGCAAAACGCGUGCUCCGUUGAAUGGAGUUCAUCAUG,-3.68
8,GGGUCUUCUCGAUCUAACAAAAAAGACAAAUCUGCCACAAAGCUUGAGAGCAUCUUCGGAUGUAGAGGCGGCGGCCUUCGGUGGCUCGAUAGCGCCAACGUUCUCAACUAUGACACGCAAAACGCGUGCUCCGUAGAAUGGAGUUUAUCAUG,-3.75
9,GGGUCUUCUCGAUUUAACAAAAAAGACAAAUCUGCCACAAACCUUGAGAGCAUCUUCGAAUGCAGAGGCGGCAGCCUUCGGUGGCGCGAUAGCGCUAACGUUCUCAACUAUGACACGCAAAUCGCGUGCUCCGUUGAAUGGAGUUCAUCAUG,≤ -4.2
10,GGGUCUUCUCCAUCUAACAAAAAAGACAAAUCUGCCACAAAGCUUGAGAGCAUCUUCGGAUGCAGAGGCGGCAGCCUUCGGUGGCGAGAUUGCGCCAACGUUCUCAACUAUGACACGCAAAACGCGUGCUCCGUUGGAUGGAGUUUAUCAUG,≤ -4.2
11,GGGUCUUCUCGAUGUAACAAAAAAGACAAAUCUGCCACAAAGCUUGAGAGCAUCUUCGGAUGCAGAGGCGGCAGCCUUCGGUGGCGCGAUAGCGCCAACGUUCUCAACUAUGACACGCAAAACGCGUGCUCCGUUGAAUGGAGUUUUUCAUG,-2.9
12,GGGUCUUCUCGAUUUAACAAAAAAGACAAAUCUACCACAAAGCUUGAAAGCAUCUUCGGAUGCAGAGGCGGCAGCCUUCGGUGGAGCGAUAGCGCCAACGUUCUCAACUAUGACACGCAAAACGCUUGCUCCGUUAAAUGGAGGUUAUCAUG,≤ -4.2
13,GGGUCUUCUCGAUCUAACAAAAAAGACAAAUCUGCCACAAAGCUUGAGAGCAUCUUCGGAUGCAGAGGCGGCAGCCUUCGGUGGCGCGAUAGAGCCAACGUUCUCAAUUAUGACACGCAAAACGGGUGCUCCGUUGAAUGGGGUGAAUCAUG,≤ -4.2
14,GGGUCUUGUCGAUCUAACAAAAAAGACAAGUCUGCCACAAAGCUUGACAGCAUCUUCGGAUGCCGAGGCGGCAGCCUUCGGUGGCGGGAUAGCGCCAACGUUCUCAACUAUGACACGCAAAACGCGUGCUCCGUUGGAUGGAGUUUAUCAUG,≤ -4.2
15,GGGUCUUCUCGAUCUAACAAAAAAGACAAAUCUGCCACAAAGCUUGAGAGCAUCUUCGGAUGCAGAGGCGGCAGCCUUCGGUGGCGCGAUAGCGCCAACGUUCUCAACUAUGACAUGCAAAACACGUGCUCCGUUGAAUGGGGUUUAUCAUG,-2.6
16,GGGUCUUCUCGAUCUAACAAAAAAGACAAAUCUGCCACAAAGCUUGAGAGCAUCUUCGGAUGCAGAGGCGGCAGCCUUCGGUGGCGCGAUAGUGCCAACGUUCUCAACUAUGACACGCAAAACGCGUGCUCCGUUGAAUGGAGUUUAUCAUG,-1.78
17,GGGUCUUCUCGAUCUAACAAAAAAGACAAAUCUGCCAAAAAGCUUGAGAGCAUCUUCGGAUGCAGAGGCGGCAGCCUUCGGUGGCGCGAUAGCGCCAACGUUCUCAACUAUGACACGCAAAACCCGUGCUCCGGUUAAUGGAGUUGAUCAUG,≤ -4.2
18,GGGUCUUCUCGAUCUAACAAAAAAGAUAAAUCUGCCACAAAGCUUGAGAGAAUCUUCGAAUGCAGAGGCGGCAGCCUUCGGUGGUGCAAUAGCGCCAACGUUCUCAACUAUGACUCGCAAAACGCGUGCUCCGUUGAAUGAAGUUUAUCAUG,≤ -4.2
19,GGGUCUUCUCGAUCUAACAAAAAAGACAAAUCUGCCACAAAGCUUGAGAGCAUCUUCGGAUGCAGAGGCGGCAGCCUUCGGUAGCUCGAUAGCGCCAACGUUCUCAACUAUGACACGUAAAACGCGUGCUCCGUUGAAUGGAGUUUAUCAUG,-3.29

# — the RNAGym collection of RNA variant scans (doi:10.1073/pnas.2313332121)
